Results taken from publication PMC7375048, “The impact of acute rosiglitazone on insulin pharmacokinetics at the blood‐brain barrier” (Endocrinology, Diabetes & Metabolism, 2020).
Where a name gives a salt, the structure may show the parent alone.

How the values were obtained:
murine BBB [1] = test: Blood-to-brain 125I-insulin transport, multiple-time regression analysis; assay type: in vivo, mouse
Protocol: (§1) This experimental set‐up was based on previous studies investigating the acute effect of rosiglitazone. ^35 , ^36
(§2) Mice were decapitated, and the brain was collected immediately, dissected into the hypothalamus, olfactory bulb and remaining whole brain and weighed. Blood was centrifuged at 5400g for 10 min and serum collected. Radioactivity in 50 µL of serum and entire brain samples were counted in a gamma counter (Wizard2; Perkin Elmer).
Exposure time is calculated by the formula:(1) Exposure time=∫0tCp(t)dt/Cp(t) where Cp(t) is the level of radioactivity (cpm) in serum at time (t). Exposure time corrects for the clearance of peptide from the blood. […] The slope of the linearity measures K i and is reported with its standard error term. […] For cardiac perfusion studies, formula 2 is employed, using the brain/perfusate ratios and the clock time is used in place of exposure time.

murine BBB [2] = test: Transcardiac brain perfusion of 125I-insulin, multiple-time regression analysis; conditions: mouse, in vivo
Description: as §1
The perfusate was freshly prepared for each study day. Perfusate was collected throughout the study to determine the average cpm/µL of perfusate. After perfusion, the olfactory bulb was collected and the brain dissected into regions (frontal/parietal/occipital cortex, striatum, hypothalamus, hippocampus, thalamus, cerebellum, midbrain and pons/medulla) according to Glowinski and Iversen; ^38 each region was weighed separately. The amount of radioactivity was determined by a gamma counter (Wizard2, Perkin Elmer). Brain/perfusate ratios are calculated by dividing the cpm in a gram of brain by the cpm in a µL of perfusate to yield units of µL/g.
Exposure time is calculated by the formula:(1) Exposure time=∫0tCp(t)dt/Cp(t) where Cp(t) is the level of radioactivity (cpm) in serum at time (t). Exposure time corrects for the clearance of peptide from the blood. […] The slope of the linearity measures K i and is reported with its standard error term. The y‐intercept of the linearity measures V i, the initial volume of distribution in brain at t = 0. ^37 Blasberg, Fenstermacher and Patlak originally described V i as the volume of test substance that rapidly and reversibly exchanges with the plasma (Blasberg 1983). For cardiac perfusion studies, formula 2 is employed, using the brain/perfusate ratios and the clock time is used in place of exposure time.

[3] = mouse, in vivo, iv
Protocol: as §2

[4] = system: brain capillary sequestration; assay type: in vivo, mouse
Protocol: Two and a half minutes later, blood was collected from the carotid, the mice decapitated and the whole brain removed. […] Homogenates were then centrifuged at 3500 g for 20 minutes at 4°C with a swinging bucket rotor (Beckman Coulter). The brain capillary fraction contained in the pellet and the supernatant containing the brain parenchyma were carefully separated. […] Fractions were expressed as percentages of total brain.

P‐glycoprotein = conditions: cited from earlier work
Description: (§3) However, we were interested in the direct effect that would be mediated at the luminal surface of the brain endothelial cell, rather than an effect within the CNS. Indeed, PPARγ activation is known to have a direct effect on cerebral vascular expression of proteins, including various adhesion molecules and metalloproteinases. ^61 Therefore, we know brain en ...

murine BBB [5] = conditions: mouse, in vivo, iv; cited from earlier work
Description: as §3

Row | Compound | BBB transport rate K i, hypothalamus (murine BBB [1]; mouse, in vivo) [µL/g‐min] | average rate of transport K i, hypothalamus (murine BBB [1]; mouse, in vivo) [µL/g‐min] | average rate of transport K i, olfactory bulb (murine BBB [1]; mouse, in vivo) [µL/g‐min] | vascular binding V i, hypothalamus (murine BBB [1]; mouse, in vivo) [µL/g] | vascular binding V i, olfactory bulb (murine BBB [1]; mouse, in vivo) [µL/g] | BBB transport rate K i, whole brain (murine BBB [1]; mouse, in vivo, iv) [µL/g‐min] | BBB transport rate K i following cardiac perfusion, hypothalamus (murine BBB [2]) [µL/g‐min] | BBB transport rate K i following cardiac perfusion, olfactory bulb (murine BBB [2]) [µL/g‐min] | change of hypothalamic BBB transport rate in the absence of serum (murine BBB [2]) | vascular binding V i following cardiac perfusion, hypothalamus (murine BBB [2]) [µL/g] | vascular binding V i following cardiac perfusion, olfactory bulb (murine BBB [2]) [µL/g] | average half‐time clearance from blood [3] [min] | fraction of radioactivity in brain parenchyma vs capillary fraction ([4]; mouse, in vivo, iv) | effect on 125I-insulin vascular binding (V i), whole brain (murine BBB [1]; 1 µg S961 (P = .0006), 10 µg RSG pretreatment with S961 (P = .044), two-way ANOVA, Sidak) | effect on 125I-insulin vascular binding (V i), hypothalamus (murine BBB [1]; 1 µg S961 (P = .002), 10 µg RSG pretreatment with S961 (P = .025), two-way ANOVA, Sidak) | effect on rate of 125I-insulin BBB transport (murine BBB [1]; whole brain, olfactory bulb, hypothalamus, 10 µg RSG pretreatment, 1 µg S961 co-injected) | effect on capillary/parenchyma distribution of 125I-insulin ([4]; 10 µg RSG pretreatment, data not shown) | P‐glycoprotein interaction (P‐glycoprotein) | penetration of the murine BBB (murine BBB [5]) | time of brain uptake (murine BBB [5]) [min]
1 | 125I‐insulin: human insulin (Sigma‐Aldrich) radioactively labelled with 125I by the chloramine‐T method | 1.39 ± 0.28 | 1.75 | 2.25 | 11.6 ± 2.0 | 10.4 ± 4.8 | 1.26 ± 0.17 | 6.11 ± 1.92 | 3.34 ± 1.31 | nearly tripled | -4.5 ± 5.7 | 13.5 ± 4.4 | 1.54 | majority | – | – | – | – | – | – | –
2 | CN(CCOc1ccc(CC2SC(=O)NC2=O)cc1)c1ccccn1 (centres unmarked) [RSG, rosiglitazone maleate] | – | – | – | – | – | – | – | – | – | – | – | – | – | prevented this decrease in binding | prevented this decrease in binding | did not significantly alter | no overt differences | substrate of p‐glycoprotein | 0.045 % of an iv injected dose | ≤ 1
